Here are results for 8 molecules from patent US20230406935A1 (F STAR THERAPEUTICS, published 2023).

Positions count from the first letter of the chain named. Read-outs that look alike come from different tables or passages of the source. A value given as a limit tells only on which side of the number the result lay.

The target in test [1] is T1, Human PD-L1 expressed on cells (human, UniProt Q9NZQ7 19-290). The experiment in a line: cell-based or functional assay.
In test [2] the target is T1, Human PD-L1 expressed on cells. Kind of test: cell-based blocking of biotinylated PD-1 Fc binding to HEK 293 hPD-L1 cells, flow cytometry. The method, then: The blocking activity of the clones produced in Example 2.2.1 was analysed in a cell-based assay using HEK 293 cells overexpressing human PD-L1 (see 1.5 for development of the cell line). Briefly, HEK 293 cells expressing human PD-L1 were seeded at 1×10⁵ cells per well in a V-bottom 96-well plate in PBS. […] The plates were centrifuged at 1500 rpm for 3 minutes at 4° C. to pellet the cells. […] The plates were centrifuged at 1500 rpm for 3 minutes at 4° C. to pellet the cells, supernatant was discarded and the cells were resuspended in PBS. Streptavidin conjugated to Alexa 488 was diluted 1:1000 in PBS and 100 μl was added to the wells for 30 minutes at 4° C. The plates were centrifuged at 1500 rpm for 3 minutes at 4° C. to pellet the cells, supernatant discarded and the cells were resuspended in PBS with DAPI. The plate was read on FACS Canto (BD Bioscience) and the data analysed using FlowJoX.
In general terms: In flow cytometry, cells or beads pass a laser one at a time.

Test [3] deals with T2, Monomeric His-tagged human PD-L1 (Acro biosystems PD1-H5229) (human, UniProt Q9NZQ7 19-238).
T2 construct: also called hPD-L1-his; PD-L1-his
The experiment in a line: SPR Biacore, captured on protein A, monomeric PD-L1-his in flow, 1:1 fit. The method, then:
The monomeric PD-L1-his human antigen was flowed over the chip in titrating concentrations at a high flow rate to minimise mass transport limitations. The KDS were measured using a 1:1 fitting analysis with no refractive index correction and Rₘₐₓ set to local.
A general note: Surface plasmon resonance follows binding to a sensor surface in real time, without labels.

Test [4] addresses T3, Biotinylated hPD-L1-Fc-Avi (human, UniProt Q9NZQ7 19-238). Kind of test: cell-based RBA, blocking of hPD-L1-Fc-Avi binding to HEK293 hPD-1 cells. As to the method: The ability of the Fcabs and mock mAb² to block hPD-1/hPD-L1 and hPD-L1/hCD80 interactions was tested in cell-based Receptor Binding Assays (RBA). […] The mix was incubated for another hour with HEK293 cells overexpressing either hPD-1 or hCD80.

Test [5] has as its target T1, Human PD-L1 expressed on cells. Kind of test: flow cytometry, HEK293 cells overexpressing the target, anti-human Fc 488. As to the method: (§1) Cell binding assays were performed by incubating Fcabs or mAb² proteins with either control HEK293 cells or HEK293 cells overexpressing hPD-L1 or cynomolgus PD-L1 cells for 1 hour at 4° C. Fcab/mAb binding was subsequently detected using an anti-human Fc 488 detection antibody. Fluorescent signal intensities were measured using a FACS canto.

Test [6] deals with T4, Cynomolgus PD-L1 expressed on HEK 293 cells (cynomolgus, UniProt Q9NZQ7 19-290 (human entry)).
T4 construct: also called cell-expressed cynomolgus PD-L1
The test is described as above. As to the method: as §1

Test [7] concerns the target T2, Monomeric His-tagged human PD-L1 (Acro …). The experiment in a line: SPR Biacore T200, mAb^2 captured by anti-Fab on CM5, monomeric antigen in flow, 1:1 fit.
The target of test [8] is T5, Monomeric cynomolgus PD-L1 (Acro Biosciences PD1-C52H4) (cynomolgus, UniProt Q9NZQ7 19-238 (human entry)).
T5 construct: also called cynomolgus monomeric PD-L1
Described as above.

Test [9] has as its target T3, Biotinylated hPD-L1-Fc-Avi. Kind of test: cell-based RBA, blocking of hPD-L1-Fc-Avi binding to HEK293 hCD80 cells; PD-L1 at 50 µg/mL.
For test [10], the target named is T1, Human PD-L1 expressed on cells. The experiment in a line: cell-based or functional assay. The source holds these as a separate data set.
The target is the same in test [11]. Kind of test: cell-based or functional assay. The source holds these as a separate data set.
Test [12] deals with T2, Monomeric His-tagged human PD-L1 (Acro …). The experiment in a line: SPR Biacore T200 as Example 5.1, anti-Fab capture, monomeric hPD-L1-his. As to the method: Fcab and mAb² binding to human PD-L1 was assessed by both BIAcore and in a cell binding assay. To measure the affinity of the clones to monomeric hPD-L1-his, the mAb² were captured using an anti-Fab antibody coated on a CM5 chip (GE 28-9582-20 AC) and Fcabs were captured using a Protein A chip (GE 29127556) using a Biacore T200 (GE). To minimize mass transport effects, the capture level was minimized to 200RU and a fast flow rate of 75 μl/min was used. […] The analysis of the data was done using the Biacore T200 evaluation software. Curves subtracted against a blank flow cell and a run with no antigen were analysed using a 1:1 fitting model with no bulk analysis and Rmax analysed locally.
The selected CH3 domain sequences were subcloned and expressed in “mock” (MSL109) mAb² format with the LALA mutation in the CH2 domain, as described in Example 4.2.1, for further screening.

The target of test [13] is T1, Human PD-L1 expressed on cells. The experiment in a line: flow cytometry, HEK293 cells overexpressing the target, anti-human Fc 488. As to the method:
(§2) Cell binding assays were performed by incubating the mock mAb² with either control HEK293 cells or HEK293 cells overexpressing hPD-L1 or cynomolgus PD-L1 cells for 1 hour at 4° C. Mock mAb² binding was subsequently detected using an anti-human Fc 488 detection antibody. Fluorescent signal intensities were measured using a FACS Canto flow cytometer (BD Biosciences).
This is another data set of the same source.

In test [14] the target is T4, Cynomolgus PD-L1 expressed on HEK 293 …. The description is as above. The method, then:
as §2
This is another data set of the same source.

The target in test [15] is T3, Biotinylated hPD-L1-Fc-Avi. Kind of test: cell-based RBA (Example 8.3), blocking of hPD-L1-Fc-Avi binding to HEK293 hCD80 cells. The method, then:
(§3) The ability of the mock mAb² to block hPD-1/hPD-L1 and hPD-L1/hCD80 interactions was tested in cell-based Receptor Blocking Assays (RBA). […] The mix was incubated for another hour with HEK293 cells overexpressing either hPD-1 or hCD80.

In test [16] the target is T3, Biotinylated hPD-L1-Fc-Avi. The experiment in a line: cell-based RBA (Example 8.3), blocking of hPD-L1-Fc-Avi binding to HEK293 hPD-1 cells. As to the method: as §3
Test [17] deals with T2, Monomeric His-tagged human PD-L1 (Acro …). The experiment in a line: SPR Biacore T200, mock mAb^2 captured by anti-Fab on CM5, monomeric antigen in flow, 1:1 fit.
Test [18] concerns the target T5, Monomeric cynomolgus PD-L1 (Acro …). Described as above.
Test [19] addresses T1, Human PD-L1 expressed on cells. Kind of test: cell-based or functional assay. The source holds these as a separate data set.
Test [20] shares this target. The experiment in a line: cell-based or functional assay. This is another data set of the same source.

T5 sequence (Q9NZQ7 other isoform, or with tags, fused parts or gaps limits assumed): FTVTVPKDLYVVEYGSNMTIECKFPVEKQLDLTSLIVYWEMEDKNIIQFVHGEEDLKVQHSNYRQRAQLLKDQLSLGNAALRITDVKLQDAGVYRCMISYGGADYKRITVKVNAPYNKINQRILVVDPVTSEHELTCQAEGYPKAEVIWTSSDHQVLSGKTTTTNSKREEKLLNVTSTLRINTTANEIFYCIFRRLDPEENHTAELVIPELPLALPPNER
T1 sequence (Q9NZQ7 19-290 limits assumed): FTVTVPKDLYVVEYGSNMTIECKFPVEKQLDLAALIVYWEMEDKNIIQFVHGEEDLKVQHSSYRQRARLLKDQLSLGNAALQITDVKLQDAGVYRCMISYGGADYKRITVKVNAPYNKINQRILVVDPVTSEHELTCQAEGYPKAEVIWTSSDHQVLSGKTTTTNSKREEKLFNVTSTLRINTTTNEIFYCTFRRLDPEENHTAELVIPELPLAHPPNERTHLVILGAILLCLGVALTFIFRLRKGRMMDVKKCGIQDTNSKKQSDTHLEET
T3 sequence (Q9NZQ7 19-238 limits assumed): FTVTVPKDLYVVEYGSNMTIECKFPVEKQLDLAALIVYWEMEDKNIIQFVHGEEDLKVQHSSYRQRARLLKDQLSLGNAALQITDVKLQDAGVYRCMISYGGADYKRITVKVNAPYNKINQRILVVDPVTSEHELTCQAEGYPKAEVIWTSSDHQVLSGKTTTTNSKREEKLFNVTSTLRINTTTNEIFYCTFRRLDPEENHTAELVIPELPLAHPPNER
T2 sequence (Q9NZQ7 19-238 limits assumed): as above
T4 sequence (Q9NZQ7 other isoform, or with tags, fused parts or gaps limits assumed): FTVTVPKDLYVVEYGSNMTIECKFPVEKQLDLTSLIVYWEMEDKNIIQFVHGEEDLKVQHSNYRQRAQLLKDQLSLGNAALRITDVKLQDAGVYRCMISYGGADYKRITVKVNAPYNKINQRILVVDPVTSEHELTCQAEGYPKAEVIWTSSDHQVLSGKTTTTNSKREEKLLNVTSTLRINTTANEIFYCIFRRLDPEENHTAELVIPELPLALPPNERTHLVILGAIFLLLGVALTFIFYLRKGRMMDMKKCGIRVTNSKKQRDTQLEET

B1: FS17-33-116/4420 mAb^2 (bispecific antibody, human IgG1, kappa, L234A L235A, V domains shown)
VH: EVKLDETGGGLVQPGRPMKLSCVASGFTFSDYWMNWVRQSPEKGLEWVAQIRNKPYNYETYYSDSVKGRFTISRDDSKSSVYLQMNNLRVEDMGIYYCTGSYYGMDYWGQGTSVTVSS
VL: DVVMTQTPLSLPVSLGDQASISCRSSQSLVHSNGNTYLRWYLQKPGQSPKVLIYKVSNRFSGVPDRFSGSGSGTDFTLKISRVEAEDLGVYFCSQSTHVPWTFGGGTKLEIKR
As for B1, the “DO11.10 T cell activation assay EC50” value in [1] was below 1 nM.

B2: Fcab FS17-33 with LALA mutation (pTT5-FS17-33AA) (designed binder)
chain: TCPPCPAPEAAGGPSVFLFPPKPKDTLMISRTPEVTCVVVDVSHEDPEVKFNWYVDGVEVHNAKTKPREEQYNSTYRVVSVLTVLHQDWLNGKEYKCKVSNKALPAPIEKTISKAKGQPREPQVYTLPPSRDEQSGYWVSLTCLVKGFYPSDIAVEWESNGQPENNYKTTPPVLDSDGSFFLYSKLTVSNWRWQMGDFSCSVMHEALHNHYTQKSLSLSPGK
A word on the IC50: it is the concentration needed to halve the response being measured. A higher IC50 goes with lower potency. For the molecule B2, in [2], the IC50 amounted to 17.7 nM.

B3: Fcab FS17-33-37 with LALA mutation (designed binder)
chain: B2 chain with S135V, G196D
notes: also called FS17-33-37AA
As a reminder, the Kd is the concentration at which binding is half-saturated. Read a high Kd as weaker binding. What is called koff is a measure of how fast the partners let go of each other. Broadly, the kon is a measure of how fast the partners come together. Lower therefore signals slower complex formation. B3: in test [3], binding was characterised by a dissociation constant (Kd) of 270 nM, the koff was 0.02 s⁻¹ and the kon was determined as 76000 M⁻¹ s⁻¹. In addition, the IC50 in test [2] came to 8.1 nM.

B4: FS17-33-449AA/MSL109 mock mAb^2 (bispecific antibody, human IgG1, kappa, L234A L235A)
heavy: EEQVLESGGGLVKPGGSLRLSCAASGFTFSPYSVFWVRQAPGKGLEWVSSINSDSTYKYYADSVKGRFTISRDNAENSIFLQMNSLRAEDTAVYYCARDRSYYAFSSGSLSDYYYGLDVWGQGTTVIVSSASTKGPSVFPLAPSSKSTSGGTAALGCLVKDYFPEPVTVSWNSGALTSGVHTFPAVLQSSGLYSLSSVVTVPSSSLGTQTYICNVNHKPSNTKVDKKVEPKSCDKTHTCPPCPAPEAAGGPSVFLFPPKPKDTLMISRTPEVTCVVVDVSHEDPEVKFNWYVDGVEVHNAKTKPREEQYNSTYRVVSVLTVLHQDWLNGKEYKCKVSNKALPAPIEKTISKAKGQPREPQVYTLPPSRDETGYWVSLTCLVKGFYPSDIAVEWESNGEPQYWAKTTPPVLDSDGSFFLYSKLTVSNWRWQLDDVFSCSVMHEALHNHYTQKSLSLSPGK
light: DIVMTQSPLSLSVTPGEPASISCRSSQSLLHTNGYNYLDWYVQKPGQSPQLLIYLASNRASGVPDRFSGSGSGTDFTLKISRVETEDVGVYYCMQALQIPRTFGQGTKVEIKRTVAAPSVFIFPPSDEQLKSGTASVVCLLNNFYPREAKVQWKVDNALQSGNSQESVTEQDSKDSTYSLSSTLTLSKADYEKHKVYACEVTHQGLSSPVTKSFNRGEC
As a reminder, the EC50 is the concentration at which the effect is half-maximal. High values mean lower potency in that assay, low ones higher potency in that assay. Consider B4, for which the values for the EC50 in test [4] and in test [9] were 1.96 nM and 194 nM, respectively. The Kd in [5] was found to be 7.88 nM; in [6], 3.6 nM; in test [7] it was 0.38 nM; in [8] it was 0.6 nM.

B5: FS17-33-548AA/MSL109 (bispecific antibody, human IgG1, kappa, L234A L235A)
heavy: B4 heavy with T371E, D432G
light: B4 light
Turning to B5, the “DO11.10 EC50” value in test [10] was 8.51 nM; in test [11], 7.59 nM. Moreover, the Kd in test [12] is 0.43 nM; in [17], 0.6 nM; in [18] it was 0.45 nM. In test [12], this molecule returned a koff of 0.000437 s⁻¹. Besides, the EC50 in test [13] worked out at 1.5 nM; in test [14], 2.1 nM; in test [15], 130 nM; in test [16], 43.2 nM.

B6: FS17-33-539AA/MSL109 (bispecific antibody, human IgG1, kappa, L234A L235A)
heavy: B4 heavy with D432G, H445R
light: B4 light
For B6, the “DO11.10 EC50” value in [10] came to 3.14 nM; in test [11], 2.91 nM. Further, the Kd is 0.39 nM in test [12], 0.9 nM in test [17] and 0.95 nM in [18]. For the same molecule, the koff in test [12] was found to be 0.000427 s⁻¹. Further, the EC50 came out at 4.8 nM in [13], 10 nM in test [14], 119 nM in test [15] and 49.7 nM in [16].

B7: FS17-33-451AA/MSL109 mock mAb^2 (bispecific antibody, human IgG1, kappa, L234A L235A)
heavy: B4 heavy with T371E
light: B4 light
notes: also called FS17-33-451AA/MSL109 (parent 2)
Take B7: the “DO11.10 EC50” value in test [10] was 4.83 nM; in test [11], 8.28 nM. Further, the EC50 in test [4] is 0.92 nM; in test [9], 190 nM. Further, the Kd in test [12] stood at 0.3 nM; in test [5], 11.7 nM; in test [6], 4.52 nM; in test [7], 0.34 nM; in test [8], 0.5 nM. For the same molecule, the koff in test [12] turned out to be 0.000329 s⁻¹.

B8: Fcab FS17-33-116 with LALA mutation (designed binder)
chain: TCPPCPAPEAAGGPSVFLFPPKPKDTLMISRTPEVTCVVVDVSHEDPEVKFNWYVDGVEVHNAKTKPREEQYNSTYRVVSVLTVLHQDWLNGKEYKCKVSNKALPAPIEKTISKAKGQPREPQVYTLPPSRDESGYWVSLTCLVKGFYPSDIVVEWESNGEPQYWAKTTPPVLDSDGSFFLYSKLTVSNWRWQMDDFSCSVMHEALHNHYTQKSLSLSPGK
In the case of B8, in test [19], the “DO11.10 T cell activity assay EC50” value is 0.28 nM. Moreover, the “DO11.10 T cell activation assay EC50” value in test [20] amounted to 0.28 nM.
